Measured values taken from article PMC5454392, “Selective BET bromodomain inhibition as an antifungal therapeutic strategy” (Nature Communications, 2017).
Where two headings read alike, the source gives them in different places.

What was measured:
CaBdf1 BD1 Y248F = target: T1, CaBdf1 BD1 Y248F (Candida albicans, UniProt Q5A4W8, Y248F); assay: Histone peptide microarray binding, YF mutant;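 on CaBdf1 BD1 Normalized (0 to 100%) YF mutant: normalized to spotted c-myc peptide positive control signal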; design: species or system C. albicans; conditions: YF mutant BD1; for CaBdf1 BD1 Normalized (0 to 100%) YF mutant: normalized array signal; for CaBdf1 BD1 Raw data YF mutant: peptide array signal
T1 construct: made in house; host or cells: E. coli BL21(DE3), inferred from the wild-type GST construct
T1 sequence (Q5A4W8 193-327 Y248F): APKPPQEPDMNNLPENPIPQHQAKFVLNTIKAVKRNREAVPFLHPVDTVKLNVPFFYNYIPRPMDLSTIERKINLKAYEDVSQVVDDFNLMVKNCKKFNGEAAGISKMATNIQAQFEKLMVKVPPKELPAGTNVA
Description: (§1) In short, arrays were blocked and incubated with 1 μM of purified CaBdf1 BD1 or BD2. Arrays were incubated with recombinant BDs for 2 h at 4 °C in binding buffer (Tris-HCl 50 mM pH 7.4, NP-40 0.1%, NaCl 150 mM, glycerol 10%). […] Assays were performed in duplicate. Images were acquired on a Bio-Rad ChemiDoc XRS Imaging machine and data were quantified using the array analyser software provided by Active Motif.

CaBdf1 BD2 Y425F = target: T2, CaBdf1 BD2 Y425F (Candida albicans, UniProt Q5A4W8, Y425F); assay: Histone peptide microarray binding, YF mutant;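 on CaBdf1 BD2 Normalized (0 to 100%) YF mutant: normalized to spotted c-myc peptide positive control signal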; design: species or system C. albicans; conditions: YF mutant BD2; for CaBdf1 BD2 Normalized (0 to 100%) YF mutant: normalized array signal; for CaBdf1 BD2 Raw data YF mutant: peptide array signal
T2 construct: made in house; host or cells: E. coli BL21(DE3), inferred from the wild-type GST construct
T2 sequence (Q5A4W8 361-501 Y425F): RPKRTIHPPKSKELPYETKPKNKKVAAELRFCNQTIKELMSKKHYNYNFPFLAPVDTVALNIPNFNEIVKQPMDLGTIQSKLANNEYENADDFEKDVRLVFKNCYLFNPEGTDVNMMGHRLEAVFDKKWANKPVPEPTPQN
Description: as §1

CaBdf1 BD1 = target: T3, CaBdf1 BD1 (Candida albicans, UniProt Q5A4W8); type: binding; conditions: wild-type BD1; for CaBdf1 BD1 Normalized (0 to 100%) WT: normalized array signal; for CaBdf1 BD1 Raw data WT: peptide array signal;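 on CaBdf1 BD1 Normalized (0 to 100%) WT: normalized to spotted c-myc peptide positive control signal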
T3 construct: made in house; host or cells: E. coli BL21(DE3)
T3 sequence (Q5A4W8 whole entry, looked up): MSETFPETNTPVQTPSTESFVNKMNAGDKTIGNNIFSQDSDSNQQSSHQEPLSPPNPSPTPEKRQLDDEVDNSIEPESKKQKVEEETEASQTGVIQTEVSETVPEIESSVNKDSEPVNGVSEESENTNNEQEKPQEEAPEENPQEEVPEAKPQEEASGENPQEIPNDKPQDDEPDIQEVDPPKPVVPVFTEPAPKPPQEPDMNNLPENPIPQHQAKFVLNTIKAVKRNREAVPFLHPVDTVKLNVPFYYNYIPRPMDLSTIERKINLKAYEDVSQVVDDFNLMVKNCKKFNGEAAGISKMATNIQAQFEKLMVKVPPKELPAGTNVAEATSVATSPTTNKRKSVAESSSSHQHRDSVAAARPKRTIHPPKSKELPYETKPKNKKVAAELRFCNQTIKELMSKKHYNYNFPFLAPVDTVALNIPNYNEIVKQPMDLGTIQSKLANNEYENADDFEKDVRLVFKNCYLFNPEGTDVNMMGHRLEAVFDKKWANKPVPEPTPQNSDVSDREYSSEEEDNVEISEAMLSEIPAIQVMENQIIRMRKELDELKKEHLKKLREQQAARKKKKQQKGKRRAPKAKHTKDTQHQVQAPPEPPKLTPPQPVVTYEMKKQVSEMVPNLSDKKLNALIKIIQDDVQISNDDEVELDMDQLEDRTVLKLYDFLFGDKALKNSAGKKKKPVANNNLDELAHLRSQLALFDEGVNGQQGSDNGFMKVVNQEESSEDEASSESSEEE
Description: (§2) In short, arrays were blocked and incubated with 1 μM of purified CaBdf1 BD1 or BD2. Arrays were incubated with recombinant BDs for 2 h at 4 °C in binding buffer (Tris-HCl 50 mM pH 7.4, NP-40 0.1%, NaCl 150 mM, glycerol 10%). […] Assays were performed in duplicate.

CaBdf1 BD2 = target: T4, CaBdf1 BD2 (Candida albicans, UniProt Q5A4W8); type: binding; conditions: wild-type BD2; for CaBdf1 BD2 Normalized (0 to 100%) WT: normalized array signal; for CaBdf1 BD2 Raw data WT: peptide array signal;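 on CaBdf1 BD2 Normalized (0 to 100%) WT: normalized to spotted c-myc peptide positive control signal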
T4 construct: made in house; host or cells: E. coli BL21(DE3)
T4 sequence (Q5A4W8 whole entry, looked up): T3 sequence (Q5A4W8 whole entry, looked up)
Description: as §2

Row | Sequence | CaBdf1 BD1 Normalized (0 to 100%) YF mutant (CaBdf1 BD1 Y248F) [%] | CaBdf1 BD1 Raw data YF mutant (CaBdf1 BD1 Y248F; first of two raw-data columns) | CaBdf1 BD1 Raw data YF mutant (CaBdf1 BD1 Y248F) | CaBdf1 BD2 Normalized (0 to 100%) YF mutant (CaBdf1 BD2 Y425F) [%] | CaBdf1 BD2 Raw data YF mutant (CaBdf1 BD2 Y425F; first of two raw-data columns) | CaBdf1 BD2 Raw data YF mutant (CaBdf1 BD2 Y425F) | CaBdf1 BD1 Normalized (0 to 100%) WT (CaBdf1 BD1) [%] | CaBdf1 BD1 Raw data WT (CaBdf1 BD1; first of two raw-data columns) | CaBdf1 BD1 Raw data WT (CaBdf1 BD1) | CaBdf1 BD2 Normalized (0 to 100%) WT (CaBdf1 BD2) [%] | CaBdf1 BD2 Raw data WT (CaBdf1 BD2; first of two raw-data columns) | CaBdf1 BD2 Raw data WT (CaBdf1 BD2)
1 | A Rme2s T Kme3 Q T A Rme2s K S T G G K A P R K Q | 0.346 | 0.003429 | 0.004115 | 0.244 | 0.002427 | 0.003398 | 0.29 | 0.003207 | 0.00481 | 0.444 | 0.008236 | 0.01167
2 | A Rme2s T Kme1 Q T A R Kme3 S T G G K A P R K Q | 0.727 | 0.007202 | 0.002743 | 0.195 | – | – | 0.326 | 0.00481 | 0.003741 | 0.259 | 0.0151 | 0.001373
3 | A Rme2a T Kme3 Q T A R Kme2 S T G G K A P R K Q | 0.554 | 0.005487 | 0.006859 | 0.244 | 0.002427 | 0.003398 | 0.145 | 0.002672 | 0.003207 | 0.296 | 0.01579 | 0.001373
4 | A Rme2s T Kme3 Q T A R Kme1 S T G G K A P R K Q | 0.831 | 0.00823 | 0.002743 | 0.195 | – | – | 0.471 | 0.00481 | 0.005879 | 0.444 | 0.01441 | 0.005491
5 | A Rme2s T Kme1 Q T A Rme2s K S T G G K A P R K Q | 0.45 | 0.004458 | 0.01166 | 0.147 | 0.001456 | 0.001456 | 0.326 | 0.004276 | 0.004276 | 0.444 | 0.006863 | 0.01304
6 | A Rme2a T Kme3 Q T A R Kac S T G G K A P R K Q | 0.554 | 0.005487 | 0.004801 | 0.244 | 0.002427 | 0.002427 | 3.44 | 0.01924 | 0.03528 | 0.518 | 0.006177 | 0.0151
7 | A Rme2a T Kme3 Q T A Rme2a K S T G G K A P R K Q | 0.658 | 0.006516 | 0.004801 | 0.293 | – | 0.002427 | 0.363 | 0.004276 | 0.00481 | 0.444 | 0.01098 | –
8 | A Rme2a T Kme2 Q T A Rme2a K S T G G K A P R K Q | 0.727 | 0.007202 | 0.003086 | 0.293 | – | 0.002427 | 0.508 | 0.007483 | 0.003741 | 0.444 | – | 0.01098
9 | A Rme2s T Kme1 Q T A R Kme1 S T G G K A P R K Q | 0.658 | 0.006516 | 0.005144 | 0.342 | 0.003398 | – | 0.29 | 0.003741 | 0.004276 | 0.518 | 0.01579 | 0.005491
10 | A Rme2s T Kac Q T A R Kme1 S T G G K A P R K Q | 0.727 | 0.007202 | 0.002743 | 0.244 | 0.002427 | 0.002427 | 0.798 | 0.009621 | 0.005879 | 0.333 | 0.01304 | 0.004804
11 | A Rme2s T Kac Q T A R Kme3 S T G G K A P R K Q | 0.727 | 0.007202 | 0.004458 | 0.293 | – | – | 0.616 | 0.005879 | 0.006948 | 0.259 | 0.01579 | 0.0006863
12 | A Rme2a T Kme2 Q T A R Kme2 S T G G K A P R K Q | 0.727 | 0.007202 | 0.002401 | 0.0977 | 0.0009709 | 0.002427 | 0.399 | 0.00481 | 0.00481 | 0.222 | 0.0151 | 0.0006863
13 | A Rme2s T Kme2 Q T A Rme2s K S T G G K A P R K Q | 0.624 | 0.006173 | 0.003086 | 0.244 | 0.002427 | 0.004854 | 0.181 | 0.002672 | 0.003741 | 0.629 | 0.00755 | 0.01579
14 | A Rme2s T Kme3 Q T A R Kme3 S T G G K A P R K Q | 0.797 | 0.007888 | 0.003772 | 0.537 | 0.00534 | 0.002427 | 0.254 | 0.003207 | 0.004276 | 0.481 | 0.01784 | 0.002745
